Assay results as given in US20060193821, “Aptamers to the human IL-12 cytokine family and their use as autoimmune disease therapeutics” (published 2006).
Positions count from the first letter of the chain named.

B1: ARC627 (mixed)
RNA: GGGAGAGGAGAGAACGUUCUACAGGCAAGUAAUUGGGGAGUGCGGGCGGGGUGUCGAUCGAUCGAUCAUCGAUG
modifications: 2'-deoxy A and G, 2'-OMe C and U (dRmY)
B2: ARC626 (mixed)
RNA: B1 RNA with U52G
modifications: 2'-deoxy A and G, 2'-OMe C and U (dRmY)
B3: ARC1626 (mixed)
RNA: ACAGGCAAGUAAUUGGGGAGUGCGGGCGGGGUGU
modifications: ARC1544 sugars; PS at 17 linkages 5' of deoxy residues as printed in Table 29; 3'-idT [PS at 2-3, 3-4, 4-5, 6-7, 7-8, 8-9, 10-11, 11-12, 14-15, 17-18, 18-19, 19-20, 21-22, 25-26, 27-28, 28-29, 32-33; ARC1544 sugars (2'-deoxy/2'-OMe); 3'-inverted dT at 35]
B4: ARC1625 (mixed)
RNA: B3 RNA
modifications: dAmCdAdGdGmCdAdAdGmUdAdAmUmUdGmGmGdGdAdGmUdGmCmGmGdGmCdGdGmGmGmU-s-dGmU-3T (d deoxy, m 2'-OMe, s PS, 3T idT) [PS at 32-33; 2'-OMe at 2,6,10,13,14,16,17,21,23,24,25,27,30,31,32,34; 2'-deoxy at other nt 1-33; 3'-inverted dT at 35]
B5: ARC1756 (mixed)
RNA: B3 RNA
modifications: mAmC-s-dAdGdGmC-s-dAmAmGmUmA-s-dAmUmU-s-dGmGmG-s-dG-s-dA-s-dGmU-s-dGmCmGmGmGmCmGmGmGmGmUmGmU-3T (d deoxy, m 2'-OMe, s PS, 3T idT) [PS at 2-3, 6-7, 11-12, 14-15, 17-18, 18-19, 19-20, 21-22; 2'-deoxy at 3,4,5,7,12,15,18,19,20,22; 2'-OMe at other nt 1-34; 3'-inverted dT at 35]
B6: ARC1624 (mixed)
RNA: B3 RNA
modifications: dAmCdAdGdGmCdAdAdGmUdAdAmUmUdGmGmGdGdAdGmUdGmCmGmG-s-dGmC-s-dG-s-dGmGmGmUdGmU-3T (d deoxy, m 2'-OMe, s PS, 3T idT) [PS at 25-26, 27-28, 28-29; 2'-OMe at 2,6,10,13,14,16,17,21,23,24,25,27,30,31,32,34; 2'-deoxy at other nt 1-33; 3'-inverted dT at 35]
B7: ARC1623 (mixed)
RNA: B3 RNA
modifications: dAmCdAdGdGmCdAdAdGmUdAdAmUmUdGmGmG-s-dG-s-dA-s-dGmU-s-dGmCmGmGdGmCdGdGmGmGmUdGmU-3T (d deoxy, m 2'-OMe, s PS, 3T idT) [PS at 17-18, 18-19, 19-20, 21-22; 2'-OMe at 2,6,10,13,14,16,17,21,23,24,25,27,30,31,32,34; 2'-deoxy at other nt 1-33; 3'-inverted dT at 35]
B8: ARC614 (mixed)
RNA: GGGAGAGGAGAGAACGUUCUACAAGGCGGUACGGGGAGUGUGGGUUGGGGCCGGUCGAUCGAUCGAUCAUCGAUG
modifications: 2'-deoxy A and G, 2'-OMe C and U (dRmY)
B9: ARC612 (mixed)
RNA: GGGAGAGGAGAGAACGUUCUACAGGCAAGUAAUUGGGGAGUGCGGGCGGGGGGGUCGAUCGAUCGAUCAUCGAUG
modifications: 2'-deoxy A and G, 2'-OMe C and U (dRmY)
B10: ARC616 (mixed)
RNA: GGGAGAGGAGAGAACGUUCUACGAUAUAGGCGGUACGGGGGGAGUGGGCUGGGGUCGAUCGAUCGAUCAUCGAUG
modifications: 2'-deoxy A and G, 2'-OMe C and U (dRmY)
B11: ARC632 (mixed)
RNA: GGGAGAGGAGAGAACGUUCUACAAUUGCAGGUGGUGCCGGGGGUUGGGGGCGGGUCGAUCGAUCGAUCAUCGAUG
modifications: 2'-deoxy A and G, 2'-OMe C and U (dRmY)
B12: AMX86-H9 (ssRNA)
RNA: GGGAAAAGCGAAUCAUACACAAGAUGGUUCCCACGUGAAAGUGGCUAGCGAGUACCCCACUUAUGCUCCGCCAGAGACCAACCAAGGG
modifications: 2'-F C,U

How the values were obtained:
[1] = molecular target: T1, IL-23 (human, p19/p40 heterodimer) (Homo sapiens, UniProt Q9NPF7;P29460 SEQ:20-189,SEQ:23-328); test: filter; +tRNA; settings: tags: R&D Systems, carrier free
[2] = molecular target: T1, IL-23 (human, p19/p40 heterodimer); test: filter; dot blot; DPBS with Ca and Mg, 0.1 mg/mL BSA, 30 min RT; settings: tags: R&D Systems, carrier free, label: 5'-32P
Method: The dot blot binding assay previously described was used to characterize the relative potency of the majority of the aptamers synthesized. For KD determination, chemically synthesized aptamers were purified using denaturing polyacrylamide gel electrophoresis, 5′end labeled with γ-³²P ATP and were tested for direct binding to full human IL-23. An 8 point protein titration was used in the dot blot binding assay (either {100 nM, 30 nM, 10 nM, 3 nM, 1 nM, 300 pM, 100 pM, 0 pM} or {10 nM, 3 nM, 1 nM, 300 pM, 100 pM, 30 pM, 10 pM, 0 pM}) in Dulbecco's PBS (with Mg⁺⁺ and Ca⁺⁺) with 0.1 mg/mL BSA. KD values were calculated by fitting the equation y=(max/(1+K/protein))+yint using KaleidaGraph (KaleidaGraph v. 3.51, Synergy Software). Sequences of the ARC979 derivatives synthesized, purified and assayed for binding to IL-23 as well as the results of the protein binding characterization are tabulated below in Tables 29 and 30.

[3] = molecular target: T2, IL-12 (human, p35/p40 heterodimer) (Homo sapiens, UniProt P29459;P29460 SEQ:57-253,SEQ:23-328); test: filter; 1X PBS, tRNA, ssDNA, BSA, 30 min RT; settings: label: 5'-32P; G4 (predicted)
Method: (§1) The clones were 5′end labeled with γ-³²P ATP, and were assayed for both IL-23 and IL-12 binding in a 3-point dot blot screen (0 nM, 20 nM, and 100 nM h-IL-23; 0 nM, 20 nM, and 100 nM h-IL-12) (data not shown). […] KD values were determined by fitting an equation describing a 1:1 RNA:protein complex to the resulting data (fraction aptamer bound=amplitude*([IL-23]/(KD+[IL-23]))+background binding) (KaleidaGraph v. 3.51, Synergy Software). Results of protein binding characterization for the higher affinity clones are tabulated in Table 13, and corresponding clone sequences are listed in Table 12.

[4] = molecular target: T1, IL-23 (human, p19/p40 heterodimer); test: filter; 1X PBS, tRNA, ssDNA, BSA, 30 min RT; settings: tags: R&D Systems, carrier free; label: 5'-32P; G4 (predicted)
Method: as §1

[5] = molecular target: T2, IL-12 (human, p35/p40 heterodimer); test: filter; tRNA
Method: Monitoring Progress of rRfY Selection. Dot blot binding assays were performed throughout the selections to monitor the protein binding affinity of the pools. Trace ³²P-labeled RNA was combined with a dilution series of h-IL-23 and incubated at room temperature for 30 minutes in 1×SHMCK (20 mM Hepes, 120 mM NaCl, 5 mM KCl, 1 mM MgCl₂, 1 mM CaCl₂, pH 7.4) plus 0.1 mg/mL tRNA for a final volume of 20 μL. The binding reactions were analyzed by nitrocellulose filtration using a Minifold I dot-blot, 96-well vacuum filtration manifold (Schleicher & Schuell, Keene, N.H.). A three-layer filtration medium was used, consisting (from top to bottom) of Protran nitrocellulose (Schleicher & Schuell), Hybond-P nylon (Amersham Biosciences) and GB002 gel blot paper (Schleicher & Schuell). RNA that is bound to protein is captured on the nitrocellulose filter, whereas the non-protein bound RNA is captured on the nylon filter. The gel blot paper was included simply as a supporting medium for the other filters. Following filtration, the filter layers were separated, dried and exposed on a phosphor screen (Amersham Biosciences, Piscataway, N.J.) and quantified using a Storm 860 Phosphorimager® blot imaging system (Amersham Biosciences).
When a significant positive ratio of binding of RNA in the presence of h-IL-23 versus in the absence of h-IL-23 was seen, the pools were cloned using a TOPO TA cloning kit (Invitrogen, Carlsbad, Calif.) according to the manufacturer's instructions. For the h-IL-23 and X-IL-23 selections, the Round 8 pool templates were cloned, and 32 individual clones from each selections were assayed in a 1-point dot blot screen (+/−75 nM h-IL-23, as well as a separate screen at +/−75 nM h-IL-12). For the PN-IL-23 selection, the Round 10 pool was cloned and sequenced, and 8 unique clones were assayed for protein binding in a 1-point dot blot screen (+/−200 nM h-IL-23 and a separate screen at +/−200 nM h-IL-12). Subsequently, the Round 10 PN-IL-23 pool was re-cloned for further sequences, as well as the R12 PN-IL-23 pool, and the clones were assayed for protein binding in a 1 point do blot screen (+/−100 nM h-IL-23 or +/−200 nM h-IL-12).

[6] = molecular target: T1, IL-23 (human, p19/p40 heterodimer); test: cell_activity; TransAM STAT3; settings: tags: R&D Systems, carrier free
Method: In summary, the cell-based assay was conducted by isolating the peripheral blood mononuclear cells (PBMCs) from whole blood using a Histopaque gradient (Sigma, St. Louis, Mo.). The PBMCs were cultured for 3 to 5 days at 37° C./5% CO₂ in Peripheral Blood Medium (Sigma) which contains PHA, supplemented with IL-2 (100 units/mL) (R&D Systems, Minneapolis, Minn.), to generate PHA Blasts. To test IL-23 aptamers, the PHA Blasts were washed twice with 1×PBS, then serum starved for four hours in RPMI, 0.20% FBS. After serum starvation, approximately 2 million cells were aliquotted into appropriately labeled eppendorf tubes. hIL-23 at a final constant concentration of 3 ng/mL (R&D Systems, Minneapolis, Minn.) was combined with a dilution series of various IL-23 aptamers as described in Example 1, and the cytokine/aptamer mixture was added to the aliquotted cells in a final volume of 100 μl and incubated at 37° C. for 10-12 minutes. The incubation reaction was stopped by adding 1 mL of ice-cold PBS with 1.5 mM Na₃VO₄. Cell lysates were made using the lysis buffer provided by the TransAM™ STAT 3 assay following the manufacturer's instructions. FIG. 20 depicts a flow summary of the protocol used for the cell based assay.
Full length clones from the rRfY selection described in Example 1A, and select minimized rRfY clones that were described in Example 2A. 1, were tested using the TransAM™ STAT3 activation assay. Table 34 summarizes the cell based assay data for IL-23 full length aptamers generated from the rRfY selections described in Example 1A. 1, each compared to the activity of their respective parent (full length) clone.

[7] = molecular target: T1, IL-23 (human, p19/p40 heterodimer); test: filter; SHMCK, tRNA; settings: tags: R&D Systems, carrier free
Summary of the method: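 Trace ³²P-labeled RNA incubated with a dilution series of h-IL-23 for 30 min at room temperature in 1×SHMCK (pH 7.4, 1 mM MgCl₂, 1 mM CaCl₂) plus 0.1 mg/mL tRNA. Bound RNA captured on nitrocellulose, free RNA on nylon; quantified by phosphorimaging. Clone screens used single points of 75, 100 or 200 nM IL-23 or IL-12.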

T2 sequence (P29459 23-219, chain 1 of 2): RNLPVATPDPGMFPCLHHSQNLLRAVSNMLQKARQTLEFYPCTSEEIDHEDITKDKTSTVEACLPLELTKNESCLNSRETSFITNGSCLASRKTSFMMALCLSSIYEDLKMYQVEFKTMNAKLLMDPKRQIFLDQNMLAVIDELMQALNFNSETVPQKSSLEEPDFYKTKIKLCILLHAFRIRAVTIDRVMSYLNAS
T2 sequence (P29460 23-328, chain 2 of 2): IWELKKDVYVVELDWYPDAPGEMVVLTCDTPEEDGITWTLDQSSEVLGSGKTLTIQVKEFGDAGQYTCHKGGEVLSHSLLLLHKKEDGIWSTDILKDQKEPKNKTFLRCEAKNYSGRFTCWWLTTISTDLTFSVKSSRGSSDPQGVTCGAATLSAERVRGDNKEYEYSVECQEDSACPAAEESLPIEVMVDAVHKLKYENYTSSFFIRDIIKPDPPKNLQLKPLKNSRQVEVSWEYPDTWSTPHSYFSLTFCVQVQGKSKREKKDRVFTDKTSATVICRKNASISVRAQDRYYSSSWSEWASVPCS
T1 sequence (Q9NPF7 20-189, chain 1 of 2): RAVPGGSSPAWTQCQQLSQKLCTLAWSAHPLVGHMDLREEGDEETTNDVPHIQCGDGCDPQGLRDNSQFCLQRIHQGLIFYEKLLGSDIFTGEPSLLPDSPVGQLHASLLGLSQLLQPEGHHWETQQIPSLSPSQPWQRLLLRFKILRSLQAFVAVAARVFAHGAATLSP
T1 sequence (P29460 23-328, chain 2 of 2): as the sequence (P29460 23-328, chain 2 of 2) above

| Binder | Kd [1] [nM] | Kd [2] [nM] | other results |
| --- | --- | --- | --- |
| GGCAAGGUAAUUGGGGAGUGCGGGCUGGG (mixed, deoxy A,G; 2'-OMe C,U) [ARC893] | 2860 | – | – |
| UAAUUGGGGAGUGCGGGCGGGGGGUCGAUCG (mixed, deoxy A,G; 2'-OMe C,U) [ARC796] | 106 | – | – |
| GGCAAGGUAAUUGGGUAGUGAGGGCGGGG (mixed, deoxy A,G; 2'-OMe C,U) [ARC892] | 255 | – | – |
| GGCAAGUAAUUGGGGAGUGCGGGCGGGG (mixed, dRmY; 3'-idT) [ARC1468] | – | 10 | – |
| B1 | – | – | Kd [3]: 79.5 nM; Kd [4]: 7 nM |
| B2 | – | – | Kd [3]: 69.8 nM; Kd [4]: 10.1 nM |
| B3 | – | 0.1 | – |
| B4 | – | 0.4 | – |
| CCAGGCAAGUAAUUGGGGAGUGCGGGCGGGGUGG (mixed, deoxy A,G; 2'-OMe C,U) [ARC980] | 139 | – | – |
| B5 | – | 0.5 | – |
| ACAGGCAAGUAAUUGGGGAGUGCGGGCGGGGUGU (mixed, dRmY; 2'-OMe G15; 3'-idT) [ARC1436] | – | 15.1 | – |
| ACAGGCAAGUAAUUGGGGAGUGCGGGCGGGGUGU (mixed, dRmY; 3'-idT) [ARC1386] | – | – | Kd ([2]; G4 (predicted)): 1 nM |
| ACAGGCAAGUAAUUGGGGAGUGCGGGCGGGGUGU (mixed, dRmY with 2'-OMe at G16, G17, G23, G24, G29, G30; 3'-idT) [ARC1544] | – | 0.9 | – |
| ACAGGCAAGUAAUUGGGGAGUGCGGGCGGGGUGU (mixed, dRmY; 2'-OMe A7; 3'-idT) [ARC1431] | – | 10 | – |
| B6 | – | 0.4 | – |
| B7 | – | 0.2 | – |
| GAUGUUGGCAAGUAAUUGGGGAGUGCGGGCGGGGUUCAUC (mixed, deoxy A,G; 2'-OMe C,U; 3'-idT) [ARC897] | 93 | – | – |
| GGCAAGUAAUUGGGGAGUGCGGGCGGGG (mixed, dRmY; 2'-OMe at two As and one G as printed in Table 29; 3'-idT) [ARC1469] | – | 49.8 | – |
| B8 | – | – | Kd [3]: 54.4 nM; Kd [4]: 3.1 nM |
| CCAGGCAAGGUAAUUGGGGAGUGCGGGCGGGGUGG (mixed, deoxy A,G; 2'-OMe C,U) [ARC890] | 114 | – | – |
| ACAGGCAAGGUAAUUGGGGAGUGCGGGCGGGGUGU (mixed, deoxy A,G; 2'-OMe C,U) [ARC889] | 115 | – | – |
| B9 | – | – | Kd [3]: 41.7 nM; Kd [4]: 5.8 nM |
| B10 | – | – | Kd [3]: 52.1 nM; Kd [4]: 13.1 nM |
| B11 | – | – | Kd [3]: 63.9 nM; Kd [4]: 19.1 nM |
| B12 | – | – | Kd [5]: 332 nM; IC50 [6]: 250 nM; Kd [7]: 105 nM |
| GGUGGGGAGUGCGGGCGGGGGGUCGCC (mixed, deoxy A,G; 2'-OMe C,U) [ARC797] | 50 | – | – |
| GGCAAGGUAAUUGGGAAGUGUGGGCGGGG (mixed, deoxy A,G; 2'-OMe C,U) [ARC891] | 177 | – | – |
